Patent US20210253718A1 (MODMAB THERAPEUTICS, published 2021)
Positions count from the first letter of the chain named.

T1: FZD8-Fc (UniProt Q9H461 28-158, limits assumed)
T1 construct: extracellular domain; also called Frizzled-Fc chimera (FZD8); not shown: Fc part
T1 sequence (looked up): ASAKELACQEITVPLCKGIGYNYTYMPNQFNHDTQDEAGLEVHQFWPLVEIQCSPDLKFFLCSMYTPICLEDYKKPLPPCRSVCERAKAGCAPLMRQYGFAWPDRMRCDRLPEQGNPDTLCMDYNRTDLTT

T2: recombinant human FZD5-Fc chimera (R&D Systems, Catalog no. 1617-FZ) (human, UniProt Q13467 27-167)
T2 construct: used for selection and ELISA; Fc part of the bought chimera not given
T2 sequence: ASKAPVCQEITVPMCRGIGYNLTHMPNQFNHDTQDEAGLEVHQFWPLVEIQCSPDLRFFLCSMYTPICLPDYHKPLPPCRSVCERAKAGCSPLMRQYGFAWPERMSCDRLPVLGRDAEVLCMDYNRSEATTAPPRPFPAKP

T3: FZD4 cysteine-rich domain (CRD), MYC-tagged and GPI-anchored on CHO cells (human, UniProt Q9ULV1 42-167, GPI anchor)
T3 construct: also called FZD4 CRD; CHO-myc-FZDGPI; not shown: MYC tag and GPI anchor signal
T3 sequence: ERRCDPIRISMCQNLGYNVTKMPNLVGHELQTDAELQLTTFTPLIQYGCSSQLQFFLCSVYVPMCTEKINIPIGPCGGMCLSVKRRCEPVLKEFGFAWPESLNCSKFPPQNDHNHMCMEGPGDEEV

T4: FZD3 cysteine-rich domain (CRD), MYC-tagged and GPI-anchored on CHO cells (human, UniProt Q9NPG1 24-150, GPI anchor)
T4 construct: domain: cysteine-rich domain (CRD); also called FZD3 CRD; CHO-myc-FZDGPI; not shown: MYC tag and GPI anchor signal
T4 sequence (looked up): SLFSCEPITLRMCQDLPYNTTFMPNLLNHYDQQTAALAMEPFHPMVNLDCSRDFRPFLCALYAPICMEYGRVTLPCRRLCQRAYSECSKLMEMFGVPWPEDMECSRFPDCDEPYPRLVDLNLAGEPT

T5: FZD9 cysteine-rich domain (CRD), MYC-tagged and GPI-anchored on CHO cells (human, UniProt O00144 35-161, GPI anchor)
T5 construct: also called FZD9 CRD; CHO-myc-FZDGPI; not shown: MYC tag and GPI anchor signal
T5 sequence: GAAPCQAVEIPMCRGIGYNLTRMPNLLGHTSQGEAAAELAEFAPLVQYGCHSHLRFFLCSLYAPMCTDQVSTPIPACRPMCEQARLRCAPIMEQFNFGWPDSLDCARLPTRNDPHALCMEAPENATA

T6: FZD10 cysteine-rich domain (CRD), MYC-tagged and GPI-anchored on CHO cells (human, UniProt Q9ULW2 30-156, GPI anchor)
T6 construct: also called FZD10 CRD; CHO-myc-FZDGPI; not shown: MYC tag and GPI anchor signal
T6 sequence: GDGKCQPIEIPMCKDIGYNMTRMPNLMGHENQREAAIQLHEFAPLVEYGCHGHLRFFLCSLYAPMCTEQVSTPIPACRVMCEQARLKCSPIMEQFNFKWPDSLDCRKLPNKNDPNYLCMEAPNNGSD

T7: FZD6 cysteine-rich domain (CRD), MYC-tagged and GPI-anchored on CHO cells (human, UniProt O60353 20-146, GPI anchor)
T7 construct: also called FZD6 CRD; CHO-myc-FZDGPI; not shown: MYC tag and GPI anchor signal
T7 sequence: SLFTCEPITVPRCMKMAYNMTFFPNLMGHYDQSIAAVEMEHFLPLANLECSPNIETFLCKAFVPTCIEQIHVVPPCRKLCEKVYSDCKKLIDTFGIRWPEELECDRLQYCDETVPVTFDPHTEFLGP

T8: FZD5 cysteine-rich domain (CRD), MYC-tagged and GPI-anchored on CHO cells (human, UniProt Q13467 29-156, GPI anchor)
T8 construct: also called FZD5 CRD; CHO-myc-FZDGPI; not shown: MYC tag and GPI anchor signal
T8 sequence: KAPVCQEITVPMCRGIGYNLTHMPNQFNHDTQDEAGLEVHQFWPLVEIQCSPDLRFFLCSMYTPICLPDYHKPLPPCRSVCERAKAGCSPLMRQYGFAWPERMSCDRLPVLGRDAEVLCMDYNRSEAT

T9: FZD8 cysteine-rich domain (CRD), MYC-tagged and GPI-anchored on CHO cells (human, UniProt Q498S8 31-155 (rat entry), GPI anchor)
T9 construct: also called FZD8 CRD; CHO-myc-FZDGPI; not shown: MYC tag and GPI anchor signal
T9 sequence: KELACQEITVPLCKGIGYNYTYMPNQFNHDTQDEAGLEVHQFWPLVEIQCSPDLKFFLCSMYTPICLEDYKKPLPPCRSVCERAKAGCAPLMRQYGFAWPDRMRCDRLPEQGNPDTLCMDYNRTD

B1: IgG-2919 (antibody, V domains shown)
VH: EVQLVESGGGLVQPGGSLRLSCAASGFNISYSYIHWVRQAPGKGLEWVASIYSSSGSTSYADSVKGRFTISADTSKNTAYLQMNSLRAEDTAVYYCARGAIDYWGQGTLVTVSS
VL: DIQMTQSPSSLSASVGDRVTITCRASQSVSSAVAWYQQKPGKAPKLLIYSASSLYSGVPSRFSGSRSGTDFTLTISSLQPEDFATYYCQQWYSSGHVLITFGQGTKVEIKR
notes: human IgG1 heavy chain (hG1), human kappa light chain (hK)
B2: IgG-2921 (antibody, V domains shown)
VH: B1 VH with S32Y, S53P, I101M
VL: DIQMTQSPSSLSASVGDRVTITCRASQSVSSAVAWYQQKPGKAPKLLIYSASSLYSGVPSRFSGSRSGTDFTLTISSLQPEDFATYYCQQWYAGSLITFGQGTKVEIK
B3: IgG-2929 (antibody, V domains shown)
VH: B1 VH with S32Y, S53P, G56S, I101M
VL: DIQMTQSPSSLSASVGDRVTITCRASQSVSSAVAWYQQKPGKAPKLLIYSASSLYSGVPSRFSGSRSGTDFTLTISSLQPEDFATYYCQQWYSSYGLITFGQGTKVEIK
notes: also called Fv-2929
B4: IgG-2910 (antibody, V domains shown)
VH: B1 VH with I34M, G56S, I101M
VL: B2 VL with A93G, G94S, S95H
B5: IgG-2920 (antibody, V domains shown)
VH: B1 VH with S32Y, S53P, A100G, I101M
VL: B2 VL with Y92F, S95A
B6: Fab-2917 (Fab, V domains shown)
VH: EVQLVESGGGLVQPGGSLRLSCAASGFNFSSSSIHWVRQAPGKGLEWVASISSSYGYTYYADSVKGRFTISADTSKNTAYLQMNSLRAEDTAVYYCARAVWYYWWVWGGFDYWGQGTLVTVSS
VL: DIQMTQSPSSLSASVGDRVTITCRASQSVSSAVAWYQQKPGKAPKLLIYSASSLYSGVPSRFSGSRSGTDFTLTISSLQPEDFATYYCQQSSYSLITFGQGTKVEIK
notes: Fab; also called Fv-2917
B7: Fab-2927 (Fab, V domains shown)
VH: EVQLVESGGGLVQPGGSLRLSCAASGFNIYYSSMHWVRQAPGKGLEWVASIYPSYGYTSYADSVKGRFTISADTSKNTAYLQMNSLRAEDTAVYYCARYGYYGFDYWGQGTLVTVSS
VL: B3 VL with Y92G, S94H, Y95G, G96Y
notes: Fab; also called Fv-2927
B8: Fab-2910 (Fab, V domains shown)
VH: B1 VH with I34M, G56S, I101M
VL: B2 VL with A93G, G94S, S95H
notes: Fab

Each binder was assayed against T1, FZD8-Fc (assay: SPR, Frizzled-Fc chimera;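 also: binding targets are Fc fusions carrying an extracellular Frizzled fragment that contains the CRD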).
Experimental: (§1) Analysis was performed using Frizzled-Fc chimera binding targets, in which the Frizzled segment consists of an extracellular portion of Frizzled which includes the CRD. Legend: Kₐ, association constant; Kd, dissociation constant; KD, equilibrium dissociation constant.

Kd [nM] | koff [s⁻¹] | kon [M⁻¹ s⁻¹] | Binder
0.0427 | 2.28e-05 | 533000 | B1
0.0244 | 2.71e-05 | 1.11e+06 | B2
– | – | 3.27e+06 | B3
0.0427 | 2.28e-05 | 533000 | B4
0.056 | 0.000238 | 4.25e+06 | B5

Each binder was assayed against T2, recombinant human FZD5-Fc chimera (R&D …) (assay: SPR, Frizzled-Fc chimera;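 also: binding targets are Fc fusions carrying an extracellular Frizzled fragment that contains the CRD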).
Experimental: as §1

Kd [nM] | koff [s⁻¹] | kon [M⁻¹ s⁻¹] | Binder
0.194 | 8.06e-05 | 416000 | B1
0.106 | 9.81e-05 | 922000 | B2
– | – | 2.77e+06 | B3
0.115 | 0.000174 | 1.52e+06 | B4
0.0883 | 0.000317 | 3.59e+06 | B5

The binders below were run against T3, FZD4 cysteine-rich domain (CRD), … (assay: immunofluorescence, CHO-CRD cells).

binding result | Binder
no binding | B6
no binding | B7
no binding | B8

The binders below were run against T4, FZD3 cysteine-rich domain (CRD), … (assay: immunofluorescence, CHO-CRD cells).

binding result | Binder
no binding | B6
no binding | B7
no binding | B8

These binders were tested against T5, FZD9 cysteine-rich domain (CRD), … (assay: immunofluorescence, CHO-CRD cells).

binding result | Binder
no binding | B6
no binding | B7
no binding | B8

Each binder was assayed against T6, FZD10 cysteine-rich domain (CRD), … (assay: immunofluorescence, CHO-CRD cells).

binding result | Binder
no binding | B6
no binding | B7
no binding | B8

Each binder was assayed against T10, FZD2 cysteine-rich domain (CRD), MYC-tagged and GPI-anchored on CHO cells (human, UniProt Q14332 35-161) (assay: immunofluorescence, CHO-CRD cells).

binding result | Binder
no binding | B6
no binding | B8

These binders were tested against T7, FZD6 cysteine-rich domain (CRD), … (assay: immunofluorescence, CHO-CRD cells).

binding result | Binder
no binding | B6
no binding | B7
no binding | B8

The binders below were run against T3, FZD4 cysteine-rich domain (CRD), … (assay: flow cytometry, CHO-CRD cells;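 also: flow cytometry of Fab binding to CHO cells overexpressing a Frizzled CRD, with binding defined as median fluorescence over twice that of CHO cells lacking any Frizzled CRD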).
Experimental: (§2) Binding was measured via flow cytometry analysis of CHO cells overexpressing CRD of FZD1, FZD2, FZD3, FZD4, FZD5, FZD6, FZD7, FZD8, FZD9 or FZD10. Median fluorescence values are shown.

median fluorescence | Binder
4.14 | B6
5.94 | B7
5 | B8

Each binder was assayed against T4, FZD3 cysteine-rich domain (CRD), … (assay: flow cytometry, CHO-CRD cells;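 also: flow cytometry of Fab binding to CHO cells overexpressing a Frizzled CRD, with binding defined as median fluorescence over twice that of CHO cells lacking any Frizzled CRD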).
Experimental: as §2

median fluorescence | Binder
3.46 | B6
4.45 | B7
3.28 | B8

Each binder was assayed against T8, FZD5 cysteine-rich domain (CRD), … (assay: flow cytometry, CHO-CRD cells;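 also: flow cytometry of Fab binding to CHO cells overexpressing a Frizzled CRD, with binding defined as median fluorescence over twice that of CHO cells lacking any Frizzled CRD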).
Experimental: as §2

median fluorescence | Binder
28.3 | B7
30.5 | B8

The binders below were run against T5, FZD9 cysteine-rich domain (CRD), … (assay: flow cytometry, CHO-CRD cells;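 also: flow cytometry of Fab binding to CHO cells overexpressing a Frizzled CRD, with binding defined as median fluorescence over twice that of CHO cells lacking any Frizzled CRD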).
Experimental: as §2

median fluorescence | Binder
3.49 | B6
3.85 | B7
2.74 | B8

These binders were tested against FZD1 cysteine-rich domain (CRD), MYC-tagged and GPI-anchored on CHO cells (human) (assay: flow cytometry, CHO-CRD cells).
Experimental: as §2

median fluorescence | Binder
18.7 | B7

Each binder was assayed against T6, FZD10 cysteine-rich domain (CRD), … (assay: flow cytometry, CHO-CRD cells).
Experimental: as §2

median fluorescence | Binder
2.76 | B6
3.31 | B7
2.81 | B8

What follows are binders tested against FZD7 cysteine-rich domain (CRD), MYC-tagged and GPI-anchored on CHO cells (human, UniProt O75084 45-169) (assay: flow cytometry, CHO-CRD cells).
Experimental: as §2

median fluorescence | Binder
20.5 | B6
16.7 | B7
10.2 | B8

Each binder was assayed against T9, FZD8 cysteine-rich domain (CRD), … (assay: flow cytometry, CHO-CRD cells).
Experimental: as §2

median fluorescence | Binder
10.3 | B7
7.91 | B8

These binders were tested against T10, FZD2 cysteine-rich domain (CRD), … (assay: flow cytometry, CHO-CRD cells).
Experimental: as §2

median fluorescence | Binder
5.57 | B6
17.9 | B7
4.47 | B8

The binders below were run against T7, FZD6 cysteine-rich domain (CRD), … (assay: flow cytometry, CHO-CRD cells).
Experimental: as §2

median fluorescence | Binder
2.89 | B6
3.05 | B7
2.79 | B8
